# Assay results reported in PMC10470860.
# What was measured:
# [1] = tested on: RFTS-containing DNMT1 A554V (human); test: fluorescence polarization; details: 5-methylcytosine on one strand (hemimethylated), 100 nM DNA, 28 °C, triplicate, hyperbolic fit, buffer, salt and pH not given (as in ref [25])
# [2] = tested on: RFTS-containing DNMT1 wild-type (human); test: fluorescence polarization; details: 5-methylcytosine on one strand (hemimethylated), 100 nM DNA, 28 °C, triplicate, hyperbolic fit, buffer, salt and pH not given (as in ref [25])
substance,measurement,setting,value
18 bp hemimethylated duplex DNA,Kd,[1],550 nM
same,Kd,[2],4600 nM
